Assay results taken from patent publication CN116199779A (BEIJING DONGFANG BIOTECH CO LTD; BEIJING JINGYI TAIXIANG …, dated 2023).

Tests used:
THP-1细胞表面的LILRB4 [1] = target: T1, THP-1细胞表面的LILRB4 (human, UniProt Q8NHJ6 22-448); assay: cell-based or functional assay
THP-1细胞表面的LILRB4 [2] = target: T1, THP-1细胞表面的LILRB4; assay: cell-based or functional assay; remark: listed apart in the source
THP-1细胞表面的LILRB4 [3] = target: T1, THP-1细胞表面的LILRB4; assay: flow cytometry on THP-1 cells
LILRB4抗原 (人LILRB4蛋白胞外段) = target: T2, LILRB4抗原 (人LILRB4蛋白胞外段) (human, UniProt Q8NHJ6 22-259); assay: ELISA, coated LILRB4, anti-human IgG-HRP
T2 construct: extracellular domain; also called 白细胞免疫球蛋白样受体亚家族B成员4

THP-1细胞表面的LILRB4 [4] = target: T1, THP-1细胞表面的LILRB4; assay: flow cytometry competition on THP-1 cells; competitor FITC-labelled ApoE

Binder	IC50 of inhibition of ARG1 secretion by THP-1 cells with ApoE (arginase activity) (THP-1细胞表面的LILRB4 [1]) [µg/mL]	IC50, NF-κB luciferase reporter in THP-1-NF-κB-Luc cells stimulated with ApoE (THP-1细胞表面的LILRB4 [2]) [µg/mL]	EC50 (THP-1细胞表面的LILRB4 [3]) [µg/mL]	EC50 (LILRB4抗原 (人LILRB4蛋白胞外段)) [µg/mL]	IC50 (THP-1细胞表面的LILRB4 [4]) [µg/mL]
人源化抗体HA-Ⅲ (human IgG1, Ck) (antibody, V domains shown, also called HA-III) VH: EVQLVESGGGLVKPGGSLRLSCAASGFTFSSYTMSWVRQAPGKGLEWVATISSGGTYTYYPDSVKGRFTISRDNAKNSLYLQMNSLRAEDTAVYYCTRDGYDGFDYWGQGTTVTVSS VL: DIVMTQTPLSLSVTPGQPASISCRSSQSLAHSNGNTYLHWYLQKPGQSPKLLIYKVSNRFSGVPDRFSGSGSGTDFTLKISRVEAEDVGVYFCSQSTHVPTFGGGTKVEIKR	98.5	3.44	0.186	0.014	2.56
人源化抗体HB-Ⅰ (human IgG1, Ck) (antibody, V domains shown, also called HB-I) VH: QVQLVQSGAEVKKPGASVKVSCKASGYTFTNYWMHWVRQAPGQGLEWIGEINPSNGRTNYNEKFKTRATLTVDTSTSTAYMELSSLRSEDTAVYYCARWGQLGLREGYYAVDYWGQGTLVTVSS VL: DIQMTQSPSSLSASVGDRVTITCRASQDISNYLNWYQQKPGKAPKLLIYYTSRLHSGVPSRFSGSGSGTDYTFTISSLQPEDIATYYCQQGNTLPPTFGGGTKVEIKR				0.343	
嵌合抗体CA-Ⅰ (MA-Ⅰ variable regions, human IgG1, Ck) (antibody, also called CA-I) heavy: not shown light: DIVMTQTTLSLPVSPGDQASISCRSSQSLAHSNGNTYLHWYLQKPGQSPKLLIYKVSNRFSGVPDRFSGSGSGTDFTLKISRVEAEDLGVYFCSQSTLVPTFGGGTKLEIKRTVAAPSVFIFPPSDEQLKSGTASVVCLLNNFYPREAKVQWKVDNALQSGNSQESVTEQDSKDSTYSLSSTLTLSKADYEKHKVYACEVTHQGLSSPVTKSFNRGEC			0.2	0.0178	
嵌合抗体CB-Ⅰ (MB-Ⅰ variable regions, human IgG1, Ck) (antibody, also called CB-I) heavy: not shown light: DIVMTQSPSSLSASLGDRVTISCRASQDISNYLNWYQQKPDGTVKLLIYYTSRLHSGVPSRFSGSGSGTDYSLTISNLEQEDIATYFCQQGNTLPPTFGGGTKLEIKRTVAAPSVFIFPPSDEQLKSGTASVVCLLNNFYPREAKVQWKVDNALQSGNSQESVTEQDSKDSTYSLSSTLTLSKADYEKHKVYACEVTHQGLSSPVTKSFNRGEC			0.445	0.0655	
